Test results: PMC3000319 (PLoS ONE, 2010)

Target: the molecule itself
Assay: AUC

B1: recombinant ovine PrP (25–233) (natural protein)
chain: not shown
stoichiometry N: 2
